Read-outs that look alike come from different tables or passages of the source.
T1: GST-Sall1 (full length) (mouse, UniProt Q9ER74 1-1322)
T1 sequence (looked up): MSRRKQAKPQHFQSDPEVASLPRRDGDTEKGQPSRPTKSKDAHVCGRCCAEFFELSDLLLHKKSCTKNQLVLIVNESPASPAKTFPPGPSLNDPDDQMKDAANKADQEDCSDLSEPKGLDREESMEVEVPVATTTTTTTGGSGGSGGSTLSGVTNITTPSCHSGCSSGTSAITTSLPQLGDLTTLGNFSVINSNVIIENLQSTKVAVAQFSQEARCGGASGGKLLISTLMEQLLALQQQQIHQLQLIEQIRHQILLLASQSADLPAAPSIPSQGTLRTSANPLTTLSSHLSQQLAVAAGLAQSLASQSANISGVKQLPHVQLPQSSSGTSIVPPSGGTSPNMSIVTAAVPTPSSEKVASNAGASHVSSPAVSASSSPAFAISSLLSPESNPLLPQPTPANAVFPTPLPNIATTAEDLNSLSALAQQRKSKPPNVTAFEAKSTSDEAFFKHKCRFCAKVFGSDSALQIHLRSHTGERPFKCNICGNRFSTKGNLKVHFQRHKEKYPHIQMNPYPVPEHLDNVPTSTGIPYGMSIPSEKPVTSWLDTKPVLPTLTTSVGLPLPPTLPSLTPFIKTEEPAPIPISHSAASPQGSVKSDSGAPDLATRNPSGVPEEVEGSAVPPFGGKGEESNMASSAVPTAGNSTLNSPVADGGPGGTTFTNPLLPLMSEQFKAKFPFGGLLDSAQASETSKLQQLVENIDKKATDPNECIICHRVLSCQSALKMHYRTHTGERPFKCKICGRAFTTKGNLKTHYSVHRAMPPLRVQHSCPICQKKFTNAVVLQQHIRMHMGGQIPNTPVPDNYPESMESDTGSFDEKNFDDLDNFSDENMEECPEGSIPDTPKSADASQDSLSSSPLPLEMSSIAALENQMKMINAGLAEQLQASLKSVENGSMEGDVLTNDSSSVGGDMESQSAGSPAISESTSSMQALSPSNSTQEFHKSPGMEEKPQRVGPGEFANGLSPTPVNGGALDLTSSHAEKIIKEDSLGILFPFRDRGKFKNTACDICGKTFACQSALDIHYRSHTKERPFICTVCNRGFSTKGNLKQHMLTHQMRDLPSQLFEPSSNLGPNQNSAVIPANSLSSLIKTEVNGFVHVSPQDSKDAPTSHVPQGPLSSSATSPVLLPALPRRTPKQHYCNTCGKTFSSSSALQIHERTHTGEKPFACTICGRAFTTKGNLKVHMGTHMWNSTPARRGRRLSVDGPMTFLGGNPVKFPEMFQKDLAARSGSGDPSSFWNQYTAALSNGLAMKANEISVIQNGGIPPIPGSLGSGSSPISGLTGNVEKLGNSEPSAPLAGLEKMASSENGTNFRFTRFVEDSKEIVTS

B1: His-Sox2 aa 1-240 (domain or fragment)
chain: not shown
B2: His-Sox2 (full length) (natural protein)
chain: not shown

Assays:
[1] = target: T1, GST-Sall1 (full length); assay: pull-down
[2] = target: T1, GST-Sall1 (full length); assay: pull-down; remark: listed apart in the source

Binder | binding result [1] | binding result [2]
B1 | binds | –
B2 | binds | binds

— publication PMC3020710 (The Journal of Biological Chemistry, 2010)
